Laboratory results from article PMC2116103.

Target: IGF1 receptor on embryonic chick spinal cord motoneurons (chick (endogenous in E6 spinal cord motoneurons))

Question: With “Highly purified human IGF2 (insulin-like growth factor 2), unlabeled (from UniProt P01344 25-91) (ligand)” as the substance, how does the neurite growth from E6 chick motoneurons in vitro, half-maximal effect read?
Answer: Its neurite growth from E6 chick motoneurons in vitro, half-maximal effect is 0.2 nM.

Question: Which neurite growth from E6 chick motoneurons in vitro, half-maximal effect does the source give for Bovine pancreatic insulin (ligand) here?
Answer: The neurite growth from E6 chick motoneurons in vitro, half-maximal effect was 20 nM.

Question: “Recombinant human IGF1 (insulin-like growth factor 1), unlabeled (from UniProt P05019 22-118) (ligand)” was tested. Which neurite growth from E6 chick motoneurons in vitro, half-maximal response did it give?
Answer: Its neurite growth from E6 chick motoneurons in vitro, half-maximal response is 0.2 nM.
